Test results reported in the supplement of paper PMC10567573.

B1: TOR1AIP2 (parent)
chain: YKYCDHENAAFKDVALVLTVLLEE

Variants of: B1
Assay: protein stability index of a GFP-peptide fusion (GPS, HEK-293T) (PSI 1-6); higher = more stable
Conditions: c terminus: a fixed tail appended
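Further: lentivirally expressed fusions sorted by FACS into six bins by GFP to DsRed ratio, PSI derived from sequencing read proportions per bin multiplied by bin number.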

Protein stability index, by site and new letter:
D13: Y 4.52
V14: A 2.48, C 1.65, D 1.46, E 1.57, H 1.4, I 2.17, K 2.12, L 4.94, P 1.88, R 1.54, T 1
A15: E 1, G 3.58, I 1.96, P 2.05, Q 2.58, R 2.8, S 2.69, T 3.21
L16: C 1.47, E 1.51, H 1.9, K 2.72, N 2.88, P 2.36, R 1.4, S 2.2, T 1.5, W 3.88
V17: A 3.79, D 2.23, E 2.51, F 2.66, G 2.05, K 1.89, M 1.94, N 2.3, P 3.33, Q 1.84, R 1.73, S 3.6, W 2.31, Y 3.19
L18: A 1.91, C 1.6, D 4.76, E 3.93, F 2, G 3.58, H 2.77, I 4.54, K 3.17, N 3.26, P 3.09, Q 3.16, R 2.16, S 3.57, T 1.96, Y 1.43
T19: C 5.95, D 1.3, F 2.68, H 1.67, K 4.43, L 3.88, M 2.87, N 2.25, P 1.74, R 4.55
V20: A 1.06, C 2.82, D 2.21, E 1.73, G 2.83, H 1.46, K 2.03, M 4.6, N 2.29, P 2.23, Q 1.56, R 2.03, S 1.41, T 2.03, Y 3.45
L21: C 1.47, D 2.29, G 1.05, I 2.99, M 2.03, P 1.73, Q 1.73, S 1.5, T 4.25, W 2.84
L22: A 3.63, D 2.07, H 2.53, N 3.49, Q 1, R 2.7, S 1.12, Y 3.23
E23: A 3.33, C 4.77, H 2.89, I 2.81, L 5.46, N 2.26, P 4, Q 2.07
E24: A 2.84, D 2.86, F 3.27, H 3.71, I 3.78, K 2.19, N 3.74, R 3.2, S 3.26, Y 2.58
